The values below come from US20170010270A1 (Chugai, published 2017).

Experiment [1] concerns the target T1, GPC3 peptide, amino acid position 321-350 (SEQ ID NO: 17) (human).
T1 construct: synthetic 30-residue peptide of GPC3
T1 peptide: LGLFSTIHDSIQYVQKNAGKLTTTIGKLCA
The experiment in a line: ELISA on immobilised peptide, antibody at 2 µg/mL. The procedure:
In order to identify more detailed epitopes for the antibodies, the amino acid sequence of GPC3 was divided into peptides of 30 residues containing 10-residue overlaps, and the corresponding peptides were synthesized (SEQ ID NOs: 1 to 29 in Table 2). Each peptide thus synthesized was dissolved at a concentration of 1 mg/mL in dimethyl sulfoxide and then diluted to 1 μg/mL with PBS. The diluted peptide solution was added at 70 μL/well to a 96-well plate and immobilized thereon at room temperature for 1 hour. After removal of unimmobilized peptides, 20% Blocking-one (Nacalai Tesque, Inc.) was added thereto as a blocking buffer solution at 200 μL/well, and the plate was blocked overnight. After removal of the blocking buffer solution, each well was washed with TBS-T three times, and each antibody diluted to 2 μg/mL with a blocking buffer was then added thereto at 70 μL/well. One hour later, the antibody was removed, and each well was washed three times by the addition of TBS-T at 200 μL/well. An HRP-bound anti-mouse antibody was added at 70 μL/well to each well and reacted therewith for 1 hour. […] The reaction was terminated by the addition of 1% SDS at 70 μL/well, and the absorbance at 405 nm was measured using a plate reader.
A general note: In an ELISA, binding on a coated surface is turned into a signal by an enzyme label.

In experiment [2] the target is T2, AW2, C-terminally His-tagged recombinant product of positions 1 to 196 of GPC3 (human, UniProt P51654 25-196).
T2 construct: Expressed in CHO cells; cell pellets used in reducing Western blot; Construct is stated from position 1; also called AW2 (1-196); not shown: C-terminal His tag
T2 sequence (P51654 25-196): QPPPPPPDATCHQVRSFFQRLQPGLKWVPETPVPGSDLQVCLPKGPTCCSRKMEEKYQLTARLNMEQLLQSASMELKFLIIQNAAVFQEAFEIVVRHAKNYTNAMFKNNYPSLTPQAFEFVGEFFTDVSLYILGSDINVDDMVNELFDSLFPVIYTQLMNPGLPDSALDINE
The experiment in a line: Western blot of CHO cell pellets, reducing. Background: Immunoblotting shows a protein as a band on a membrane.

The target of experiment [3] is T3, AW3, C-terminally His-tagged recombinant product of positions 1 to 218 of GPC3 (human, UniProt P51654 25-218).
T3 construct: Expressed in CHO cells; cell pellets used in reducing Western blot; Construct is stated from position 1; not shown: C-terminal His tag
T3 sequence (P51654 25-218): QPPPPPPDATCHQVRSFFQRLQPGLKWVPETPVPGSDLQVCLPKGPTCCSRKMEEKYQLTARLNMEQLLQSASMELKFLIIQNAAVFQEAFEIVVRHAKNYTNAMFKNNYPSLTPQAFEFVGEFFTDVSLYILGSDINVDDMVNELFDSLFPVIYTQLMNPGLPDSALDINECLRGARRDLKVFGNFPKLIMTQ
In words: Western blot of CHO cell pellets, reducing.

B1: GT30 antibody (antibody, V domains shown)
VH: QVQLQQSGAELARPGASVKLSCRASGYTFTSYGISWMMQRTGQGLEWIGEIYPRSGITYYNEKFKGKATLTADKSSSTAYMQLSSLTSEDSAVYFCARDVSDGYLFPYWGQGTLVTVSA
VL: DIQMTQSPASLSASVGETVTITCRTSENIYSYLAWYQQKQGKSPQLLVYNAKTLPEGVPSRFSGSGSGTQFSLKINSLQPEDFGSYYCQHHYGTPPTFGGGTKLEIKR
As for B1, the binding result in experiment [1] was “binds”; in experiment [2] it was “no binding”; in experiment [3] it was “no binding”.
